From article PMC12395300 (ACS Central Science, 2025)

Biological target: PD1 (as used in the ELISA) (Mus musculus, UniProt Q02242)
Sequence (Q02242 25-288): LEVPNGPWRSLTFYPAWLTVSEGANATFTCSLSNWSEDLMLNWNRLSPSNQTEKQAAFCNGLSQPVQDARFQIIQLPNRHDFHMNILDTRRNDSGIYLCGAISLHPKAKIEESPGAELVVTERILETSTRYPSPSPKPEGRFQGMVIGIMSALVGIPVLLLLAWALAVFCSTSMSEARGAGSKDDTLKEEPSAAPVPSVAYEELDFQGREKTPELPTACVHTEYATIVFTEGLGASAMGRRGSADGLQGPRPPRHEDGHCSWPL

B1: anti-hPD1 (pembrolizumab) (antibody, V domains shown)
VH: QVQLVQSGVEVKKPGASVKVSCKASGYTFTNYYMYWVRQAPGQGLEWMGGINPSNGGTNFNEKFKNRVTLTTDSSTTTAYMELKSLQFDDTAVYYCARRDYRFDMGFDYWGQGTTVTVSS
VL: EIVLTQSPATLSLSPGERATLSCRASKGVSTSGYSYLHWYQQKPGQAPRLLIYLASYLESGVPARFSGSGSGTDFTLTISSLEPEDFAVYYCQHSRDLPLTFGGGTKVEIK
  binding result: binds
